Results published in the DeepSol protein solubility set.

Assay: soluble on expression in E. coli; label from the status in PepcDB or PDB records

Sequence | soluble on expression in E. coli
MILKPIGVVKSPFKTQNDAPRQGRFSDAVSEIAIFDEYADGLHKIENLRHIIVLYWMDKASRDKLRVVPPGETEERGVFTTRSPSRPNPIGLCVVEILEVERNRLKVRWLDALDGSPVIDIKKYSPEIDCVNQLEGQQP | not soluble
MILNIRDHYLPREYWKYISLHRGPIYGYKLEAYIGADNCIHYKEIPKNPDDTLRENETIYI | not soluble
MILNPQKLSVDFGNGITATEPIIPRRYTLTHSDITAKLFLNIGLTYAYNKMTTMRDEVLGEWVKKSQDYSYQVFLHVDGRLGPKTTAIRNKIFRRELPLALEAIRYGDKRFFNAHPYLDNAPITVFFISTNPNFNKIENWGTFSDYNIESYYRNLEHHHHHH | soluble
MILRYATNLKLAKELYQASKPKLQEDKGMIELFEHTFGLQKELVKYVGIAEATTAALYSASFINKNISRLASLSTIGILSVAAYKHFEAGQGKKGAQHALDLLGLATLSLLDTFSCNKKLEHHHHHH | not soluble
MILSSYNTIQSVFCCCCCCSVQKRQMRTQISLSTDEELPEKYTQHRRPWLSQLSNKKQSNTGRVQPSKRKPLPPLPPSEVAEEKIQVKALYDFLPREPCNLALRRAEEYLILEKYNPHWWKARDRLGNEGLIPSNYVTENKITNLEIYEWYHRNITRNQAEHLLRQESKEGAFIVRDSRHLGSYTISVFMGARRSTEAAIKHYQIKKNDSGQWYVAERHAFQSIPELIWYHQHNAAGLMTRLRYPVGLMGSCLPATAGFSYGKVCTHAEVK | soluble
MINAKVHVAVPTAFYADESLNISATLAHAQYLLDHQIESVMLCGSTGEQHSLDLDEKIALARAVDRAEWPQGAEIIFGVSAIRQSHAVRLAQVVAQCERIDAILVGFPPYIRPTQDQARRFVTAITQTAGKPAIIYNNPARTGFDASASTLAQLCMLPDVIGVKDPGGAPKLAEVSREIAPFRARYYAGGELDLHAKVAHGYTYLSSIVGNIAPEETVAWFNALRHGEEYESSSRLQELIDQLFAHHPIQFLKEKISTQEGINMGSCRLPLGPIAD | not soluble
MINKTKRLMVPRTVKIPRKTYFWGPTPLPGRHKADHSVTLLTIIRDYLRLSDKEREATRILANGLVKVDGKVVKERKFGVGFMDVIEISGESYRVVYNNQGALVLVSESKDRANMKPLQVKNKVIAPGNKIQLGFHDGRVMVTEDRSISVGDVVIASLPDMKITEIIKMQPGNKAFITGGSHVGETGTISKIEIKESSSANLVHFDEGFTTVKDHVFVIGSPRFTFTMPSGEVYPLEHHHHHH | not soluble
MINLSNLSAVATSVARAALGESNTSKINHAFDVASHIAGQTALRVGNSLLEQINRLNERQQQGLSEILKALRGEKPVDGVHTHSGGGLFKLARAAFDVVSVVWERDKLKPHVMSFLKALDSQGKTLFSLGKEMAKAFAESVQGPDKNNGKTESSPYASFASKVGMSKVVQRLFNELGRPGAERVRRPTSGPAPRPGGAEQQARPETPPRTRPQANGAPPPPPKAEPRPSSGRPGGAQQQARPETPPRSRPQTNSAPPPPRAEPRPASGRPGGAQQQARPETPPRSRPQTNSAPPPPKAEPRPSSGRPGGAQQQARPETPPRSRPQTNNAPPPRSNNTAGASASAKVGESGPAKPAVKPLYEWLGLSDMTASPAAVKKAYYNASMKHHPDKNPGDAGATARFQDISNAFSILSDPEKRKAYDSGRMNEKGQYV | not soluble
MINSKKELRKNMVLKRDSLEPDLKSIKDNMIYNKVINSIQYKSANNIFVFVSYKSEVDTHNIIRTAIADGKKVFVPKVISKEKGMEAAEIRGFFDLEKSAYGILEPKSSNYIEPESIELLLVPGLAFDESGGRIGYGGGFYDRYMSLLDKSAVKVGICYDFQVIDKVIMNINDVPVDKIIVGLEHHHHHH | not soluble
MINVEQVFALDIGTRLVMGLIMEKAPGGYHIIARAQTEHRQRAMYDGQIHDIEEVAQAVQRVKEELEEKIKGKLHYVSVAAAGRALKTAVATAQKSELIPMIWEREDIFALEMEAVQQALREIQAEDEIIPYHCVGYSTIESLLEGQNLSSLSGQRGKEAQVKVIATFLPRTVIDGLTRVISKVGLEMRELTLEPIAAGRAAIPPDMRRMNLALVDVGAGTSDIALTKSGSFFAYGMVPMAGDEITERICQHFLVDFQTGEKIKRSLNTKTKVTFTDFLGMKTTVNKEEVLEQIQPVVLELAQKLADEILRLNQGNPHAIILIGGGSQTPLLAEVLSDLLELPRNRVGIQVRERIQGVSGEKSLKGPDAITPIGIGISTIEGEGLQYFSVHVNDLTVQIFELQLATVSDALLAAGITPRLLVGRPGSALTVELNGDIKVSKGQFSKPAQFFLNGEEVKLDHELKPGDKIQFIPAQDGENAQATFADLVPAIPEKKIKVNGESVVFTAQIFCNGRPVTRDGDVPDGAKITVFQNQTLKDLLHFLNDKQYSLSEIRYKINGEERVIPIHKEFYINQQKVALERMIKDGDDLVILVKEVYIKDLQLKPTPMVFYVNGQEVEYPPQIFRILSRGRVLSDQEKVVDGMELSVEGYDTMPLLSELLPYVNIPQDVPANARLSLKRNNQEAEFTTPLIPGDRIEIHWEQVASALLEHHHHHH | soluble
MIPGGNTLKETAVVPAATGYDRIAFIYDIIAGIASFDQINKSQLAFLSSIPTQSTCLILGGGTGYFLQKLLEQNATIQVTYVDASQKMIEFAQKRIAEKKPYDAHRVTFVCKQVNVFEFDTYDSIVCNYFLDLFEEADVTMLIKKFKKHLKKDGILYITDFTMPIRTGIIEWSAKAGLKVLYWFFKRTTSLSNNQLPDIESVVLKQDFIKLHSADFFKGILRCSLYR | not soluble
MIPGSTSGISFSRILSRQTSHQDATQHTDAQQAEIQQAAEDSSPGAEVQKFVQSTDEMSAALAQFRNRRDYEKKSSNLSNSFERVLEDEALPKAKQILKLISVHGGALEDFLRQARSLFPDPSDLVLVLRELLRRKDLEEIVRKKLESLLKHVEEQTDPKTLKAGINCALKARLFGKTLSLKPGLLRASYRQFIQSESHEVEIYSDWIASYGYQRRLVVLDFIEGSLLTDIDANDASCSRLEFGQLLRRLTQLKMLRSADLLFVSTLLSYSFTKAFNAEESSWLLLMLSLLQQPHEVDSLLADIIGLNALLLSHKEHASFLQIFYQVCKAIPSSLFYEEYWQEELLMALRSMTDIAYKHEMAEQRRTIEKLS | not soluble
MIPKAFDGVKLLQFSDLHLGHYDSLERFYRIINQINKLQPDIVVFTGDLLHEANRYPHTEEVADALASIRAPLGKFSVYGNHDHGGYGTDIYRRLMERAGFRVLVNEHALVRRGQERIAVAGGDDMMLGQPDWAKMTSGIPASTYTIALVHEPDGALETCRYPIHVQLSGHSHGGQIQLPFIGPLITPPLSERYYEGFYHVGGLVLYVNRGLGTTRVPLRFFAPPELTVFSLIHRLEHHHHHH | not soluble
MIPMSETKNELEILLEKAATEPAHRPAFFRTLLESTVWVPGSAAEGEAIVEDSALDLQHWEKEDGTTVIPFFTSLEALQQAVEDEQAFVVMPARTLFEMTLGETLFLNAKLPTGKEFMPREISLLLAEEGSPLSTQEVLEGGESLILSEVAEPPSQMIDSLTTLFKTIKPVKRAFLCAIKEHADAQPNLLIGIEADGEIEEIIHAAGNVATDTLPGDEPIDICQVRKGEQGISHFITEHIAPFYERRWGGFLRDFKQNRII | not soluble
MIPPEIRRSVLLQKAIKLALAGTLLTFASFSATAADPSSDTETPQPPDILLGPLFNDVQNAKLFPDQKTFADAIPNSDPLMILADYRMQRNQSGFDLRHFVDVNFTLPKAGEKYVPPAGQSLREHIDGLWPVLTRSTKNVEKWDSLLPLPESYVVPGGRFREIYYWDSYFTMLGLAESGHWDKVADMVANFGYEIDAWGHIPNGNRTYYLSRSQPPFFAFMVELLAQHEGDDALKEYLPQLQKEYAYWMEGVETLQPGQQNQRVVKLEDGSVLNRYWDDRDTPRPESWVEDIATAKSNPNRPATEIYRDLRSAAASGWDFSSRWMDNPQQLSTIRTTTIVPVDLNALLYQLEKTLARASAAAGDRAKASQYDALANARQKAIEMHLWNNKEGWYADYDLQNNKIRDQLTAAALFPLYVNAAAKDRAVKVAAAAQAHLLQPGGLATTSVKSGQQWDAPNGWAPLQWVAAEGLQNYGQDDVAMEVTWRFLTNVQHTYDREKKLVEKYDVSSTGTGGGGGEYPLQDGFGWTNGVTLKMLDLICPQEKPCDSVPSTRPASLSATPTKTPSAATQLEHHHHHH | not soluble
MIQEPARVQAAPTFEATIREDNAKYQETAAGGTYSSPNCSCSQRRTRPTEPTKDSPTSTITTIPIVIDSKPNPRILLIRVPTSNRGSNSNNNSNSTRSGTEHRAPRTRIIRIPFLPGSVPTRPPSNQAAPATSSLVNPIGSARRCRISTYPTTGTLTSRSQPETVAGLPTTAMVNQTVPVLSSAPQTQTLAAMAGIQLTGADEPPSRRDVSGAMPTATVEEIDVPVFIDEYLQDIEATSSTCNSENGKEIFTETDILDFDINMFAEEDLIELEGKKTDPFSPAMDGMNNDNLDDDFLQLNDLLNEEETFDMSSMSGVGIDINQEQELDFINIFHNSQPTAMLTSSEDPYLATYSQATSTSSTTKFITEEPLLADMTSFDISYTSSQELGFGLVEDVSGSFASSCSDVAAAIPAPIQHPIITNIKRSAPAPVESQPTKRSRLMLQIKTELAPAFSPTTPEIINQLLNDDRFEAPTTSTSTSTSNTSISSSTHADIVEDLRSAEEETTTDFSAPNTPHSNYSASSSCAAPTCQTGYGGFLTAPTSPAYSTASTSVFSPSPASGISGKRKRGRPAKDHADGPDPVLMSSMKSEEERKAYQDRLKNNEASRVSRRKTKVREEEEKRAEDTLLAENLRLRARADEVASRERKFKKYLMERQRQKSTYVKQEQD | not soluble
MIQHTMLKLYWANFTTAQLHHLTSTYPDFLSENVFHQHDMIKRWLTERNSERLWNKYERFKELKLMDIIKEMKKANVSFTTYFDDNYPSLCKEMYDYPYVIFYKGNPQFFNHSHSLAVIGSRNATQYTSQSLNYLFPSFRQLNMAIVSGLARGADSVAHQTALKYLLPTIGVLGFGHCYHYPKATLNLRTKVERNGLVISEYPPFSPISKHKFPERNRLISGLSRGVLITEAEERSGSQITIDCALEQNRNVYVLPGSMFNKMTKGNLRRINEGAQVVIDESSILYDYLF | not soluble
MIQLIATPSNALVDEPVSIRATGLPPSQIVTIKATVKDENDNVFQSQAFYKTNEAGEVDLEKTPALGGDYVGVHPMGLFFSLKPKKAFHRLMKKDVMNSPLCICLDLYDSVNWLETVRIPSKASQRVQRWFVGPGVKREQIQEGRVRGALFLPPVEFRASLLASHGFAVLALAYFAYEDLPEKPQEVDLEYFEEAANFLLSHPKIQQPGIGVISTSKGAEIGLAMACYLKQVIATVCINGPTTITIFPLRYQDLVMTPIHPALERIQVHDSGALLFRYTTQYLHNKLNSQNILPVEKAQGKILFIVGENDECLDSKLHAQKAMDRLQRHGRSSGRMLAYPGAGHLIEPPYSPVCFVAWFPVLGQPMCFGGDLMAHAAAQEHSWREIQKFFRKHLLQSGSKL | not soluble
MIQLNLPPYEHRIHQEDESMFIFDSIRRRYVALTPEEWVRQHFVHYLTDVLGYPADLIRNEAQLRIDRRRKRCDTVVYDTNLRPIVLCEYKAPTVSLTQKTMDQILCYNFIFRVPLLLLSNGLQHAACLVDYEQSGYVFLPEIPSYEELTTIIQSNQ | not soluble
MIRHLEFKSRTRTDMIDITSAVQEQVRSAAVRNGVCHLFVLHTTAGITINEGADPAVQRDMVNFLDRLVPIDPYFTHAEGNSDAHIKSTLTGTSLTVFIVEGKLLLGSWQSIYLCEFDGPRHRRVAVKVVPDPLEHHHHHH | not soluble
MIRMAQNNKELEKLAYEYQVLQAQAQILAQNLELLNLAKAEVQTVRETLENLKKIEEEKPEILVPIGAGSFLKGVIVDKNNAIVSVGSGYAVERSIDEAISFLEKRLKEYDEAIKKTQGALAELEKRIGEVARKAQEVQQKQSMTSFKVKK | soluble
